Assay results taken from the supplement of paper PMC12338614.
± gives the uncertainty stated by the source.

B1: library; numbered along this chain (parent)
chain: MEVVDPQQLGMFTEGELMSVGMDTFIHRIDSTEVIYQPRRKRAKLIGKYLMGDLLGEGSYGKVKEVLDSETLCRRAVKILKKKKLRRIPNGEANVKKEIQLLRRLRHKNVIQLVDVLYNEEKQKMYMVMEYCVCGMQEMLDSVPEKRFPVCQAHGYFCQLIDGLEYLHSQGIVHKDIKPGNLLLTTGGTLKISDLGVAEALHPFAADDTCRTSQGSPAFQPPEIANGLDTFSGFKVDIWSAGVTLYNITTGLYPFEGDNIYKLFENIGKGSYAIPGDCGPPLSDLLKGMLEYEPAKRFSIRQIRQHSWFRKKHPPAEAPVPIPPSPDTKDRWRSMTVVPYLEDLHGADEDEDLFDIEDDIIYTQDFTVPGQVPEEEASHNGQRRGLPKAVCMNGTEAAQLSTKSRAEGRAPNPARKACSASSKIRRLSACKQQ

Variants of: B1
Test: STK11 functional score (HeLa growth suppression), rescaled enrichment; synonymous median = 1, nonsense median = 0 (normalised score)
Details: with HeLa; variant type: missense
Experimental: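 Deep mutational scan (TileSeq/POPCode codon randomisation) of full-length codon-optimised STK11 cDNA integrated at a Bxb1 landing pad (AAVS1) in HeLa cells. Restoring functional STK11 suppresses HeLa proliferation. Variant frequencies were measured by NGS before and after about two weeks of growth. The error-corrected enrichment log-ratio was rescaled so that synonymous median = 1 and nonsense median = 0, scores above 1 were compressed, and codon-level and three biological replicate scores were combined; error is the bootstrapped standard error. Scale: synonymous median = 1, nonsense median = 0; below 0.5 = damaging.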

Row | Variant | STK11 functional score
1 | MEVVDPQQLGMFTEGELMSVGMDTFIHRIDSTEVIYQPRRKRAKLIGKYLMGDLLGEGSYGKVKEVLDSETLCRRAVKILKKKKLRRIPNGEANVKKERQLLRRLRHKNVIQLVDVLYNEEKQKMYMVMEYCVCGMQEMLDSVPEKRFPVCQAHGYFCQLIDGLEYLHSQGIVHKDIKPGNLLLTTGGTLKISDLGVAEALHPFAADDTCRTSQGSPAFQPPEIANGLDTFSGFKVDIWSAGVTLYNITTGLYPFEGDNIYKLFENIGKGSYAIPGDCGPPLSDLLKGMLEYEPAKRFSIRQIRQHSWFRKKHPPAEAPVPIPPSPDTKDRWRSMTVVPYLEDLHGADEDEDLFDIEDDIIYTQDFTVPGQVPEEEASHNGQRRGLPKAVCMNGTEAAQLSTKSRAEGRAPNPARKACSASSKIRRLSACKQQ [I99R] | 0.708 ± 0.16
2 | MEVVDPQQLGMFTEGELMSVGMDTFIHRIDSTEVIYQPRRKRAKLIGKYLMGDLLGEGSYGKVKEVLDSETLCRRAVKILKKKKLRRIPNGEANVKKEMQLLRRLRHKNVIQLVDVLYNEEKQKMYMVMEYCVCGMQEMLDSVPEKRFPVCQAHGYFCQLIDGLEYLHSQGIVHKDIKPGNLLLTTGGTLKISDLGVAEALHPFAADDTCRTSQGSPAFQPPEIANGLDTFSGFKVDIWSAGVTLYNITTGLYPFEGDNIYKLFENIGKGSYAIPGDCGPPLSDLLKGMLEYEPAKRFSIRQIRQHSWFRKKHPPAEAPVPIPPSPDTKDRWRSMTVVPYLEDLHGADEDEDLFDIEDDIIYTQDFTVPGQVPEEEASHNGQRRGLPKAVCMNGTEAAQLSTKSRAEGRAPNPARKACSASSKIRRLSACKQQ [I99M] | 1.07 ± 0.36
3 | MEVVDPQQLGMFTEGELMSVGMDTFIHRIDSTEVIYQPRRKRAKLIGKYLMGDLLGEGSYGKVKEVLDSETLCRRAVKILKKKKLRRIPNGEANVKKEQQLLRRLRHKNVIQLVDVLYNEEKQKMYMVMEYCVCGMQEMLDSVPEKRFPVCQAHGYFCQLIDGLEYLHSQGIVHKDIKPGNLLLTTGGTLKISDLGVAEALHPFAADDTCRTSQGSPAFQPPEIANGLDTFSGFKVDIWSAGVTLYNITTGLYPFEGDNIYKLFENIGKGSYAIPGDCGPPLSDLLKGMLEYEPAKRFSIRQIRQHSWFRKKHPPAEAPVPIPPSPDTKDRWRSMTVVPYLEDLHGADEDEDLFDIEDDIIYTQDFTVPGQVPEEEASHNGQRRGLPKAVCMNGTEAAQLSTKSRAEGRAPNPARKACSASSKIRRLSACKQQ [I99Q] | 0.527 ± 0.62
4 | MEVVDPQQLGMFTEGELMSVGMDTFIHRIDSTEVIYQPRRKRAKLIGKYLMGDLLGEGSYGKVKEVLDSETLCRRAVKILKKKKLRRIPNGEANVKKEPQLLRRLRHKNVIQLVDVLYNEEKQKMYMVMEYCVCGMQEMLDSVPEKRFPVCQAHGYFCQLIDGLEYLHSQGIVHKDIKPGNLLLTTGGTLKISDLGVAEALHPFAADDTCRTSQGSPAFQPPEIANGLDTFSGFKVDIWSAGVTLYNITTGLYPFEGDNIYKLFENIGKGSYAIPGDCGPPLSDLLKGMLEYEPAKRFSIRQIRQHSWFRKKHPPAEAPVPIPPSPDTKDRWRSMTVVPYLEDLHGADEDEDLFDIEDDIIYTQDFTVPGQVPEEEASHNGQRRGLPKAVCMNGTEAAQLSTKSRAEGRAPNPARKACSASSKIRRLSACKQQ [I99P] | 0.0871 ± 0.35
5 | MEVVDPQQLGMFTEGELMSVGMDTFIHRIDSTEVIYQPRRKRAKLIGKYLMGDLLGEGSYGKVKEVLDSETLCRRAVKILKKKKLRRIPNGEANVKKEWQLLRRLRHKNVIQLVDVLYNEEKQKMYMVMEYCVCGMQEMLDSVPEKRFPVCQAHGYFCQLIDGLEYLHSQGIVHKDIKPGNLLLTTGGTLKISDLGVAEALHPFAADDTCRTSQGSPAFQPPEIANGLDTFSGFKVDIWSAGVTLYNITTGLYPFEGDNIYKLFENIGKGSYAIPGDCGPPLSDLLKGMLEYEPAKRFSIRQIRQHSWFRKKHPPAEAPVPIPPSPDTKDRWRSMTVVPYLEDLHGADEDEDLFDIEDDIIYTQDFTVPGQVPEEEASHNGQRRGLPKAVCMNGTEAAQLSTKSRAEGRAPNPARKACSASSKIRRLSACKQQ [I99W] | 0.631 ± 0.11
6 | MEVVDPQQLGMFTEGELMSVGMDTFIHRIDSTEVIYQPRRKRAKLIGKYLMGDLLGEGSYGKVKEVLDSETLCRRAVKILKKKKLRRIPNGEANVKKELQLLRRLRHKNVIQLVDVLYNEEKQKMYMVMEYCVCGMQEMLDSVPEKRFPVCQAHGYFCQLIDGLEYLHSQGIVHKDIKPGNLLLTTGGTLKISDLGVAEALHPFAADDTCRTSQGSPAFQPPEIANGLDTFSGFKVDIWSAGVTLYNITTGLYPFEGDNIYKLFENIGKGSYAIPGDCGPPLSDLLKGMLEYEPAKRFSIRQIRQHSWFRKKHPPAEAPVPIPPSPDTKDRWRSMTVVPYLEDLHGADEDEDLFDIEDDIIYTQDFTVPGQVPEEEASHNGQRRGLPKAVCMNGTEAAQLSTKSRAEGRAPNPARKACSASSKIRRLSACKQQ [I99L] | 0.855 ± 0.1
7 | MEVVDPQQLGMFTEGELMSVGMDTFIHRIDSTEVIYQPRRKRAKLIGKYLMGDLLGEGSYGKVKEVLDSETLCRRAVKILKKKKLRRIPNGEANVKKEVQLLRRLRHKNVIQLVDVLYNEEKQKMYMVMEYCVCGMQEMLDSVPEKRFPVCQAHGYFCQLIDGLEYLHSQGIVHKDIKPGNLLLTTGGTLKISDLGVAEALHPFAADDTCRTSQGSPAFQPPEIANGLDTFSGFKVDIWSAGVTLYNITTGLYPFEGDNIYKLFENIGKGSYAIPGDCGPPLSDLLKGMLEYEPAKRFSIRQIRQHSWFRKKHPPAEAPVPIPPSPDTKDRWRSMTVVPYLEDLHGADEDEDLFDIEDDIIYTQDFTVPGQVPEEEASHNGQRRGLPKAVCMNGTEAAQLSTKSRAEGRAPNPARKACSASSKIRRLSACKQQ [I99V] | 0.876 ± 0.11
8 | MEVVDPQQLGMFTEGELMSVGMDTFIHRIDSTEVIYQPRRKRAKLIGKYLMGDLLGEGSYGKVKEVLDSETLCRRAVKILKKKKLRRIPNGEANVKKESQLLRRLRHKNVIQLVDVLYNEEKQKMYMVMEYCVCGMQEMLDSVPEKRFPVCQAHGYFCQLIDGLEYLHSQGIVHKDIKPGNLLLTTGGTLKISDLGVAEALHPFAADDTCRTSQGSPAFQPPEIANGLDTFSGFKVDIWSAGVTLYNITTGLYPFEGDNIYKLFENIGKGSYAIPGDCGPPLSDLLKGMLEYEPAKRFSIRQIRQHSWFRKKHPPAEAPVPIPPSPDTKDRWRSMTVVPYLEDLHGADEDEDLFDIEDDIIYTQDFTVPGQVPEEEASHNGQRRGLPKAVCMNGTEAAQLSTKSRAEGRAPNPARKACSASSKIRRLSACKQQ [I99S] | 0.869 ± 0.37
9 | MEVVDPQQLGMFTEGELMSVGMDTFIHRIDSTEVIYQPRRKRAKLIGKYLMGDLLGEGSYGKVKEVLDSETLCRRAVKILKKKKLRRIPNGEANVKKEYQLLRRLRHKNVIQLVDVLYNEEKQKMYMVMEYCVCGMQEMLDSVPEKRFPVCQAHGYFCQLIDGLEYLHSQGIVHKDIKPGNLLLTTGGTLKISDLGVAEALHPFAADDTCRTSQGSPAFQPPEIANGLDTFSGFKVDIWSAGVTLYNITTGLYPFEGDNIYKLFENIGKGSYAIPGDCGPPLSDLLKGMLEYEPAKRFSIRQIRQHSWFRKKHPPAEAPVPIPPSPDTKDRWRSMTVVPYLEDLHGADEDEDLFDIEDDIIYTQDFTVPGQVPEEEASHNGQRRGLPKAVCMNGTEAAQLSTKSRAEGRAPNPARKACSASSKIRRLSACKQQ [I99Y] | 0.0269 ± 0.081
10 | MEVVDPQQLGMFTEGELMSVGMDTFIHRIDSTEVIYQPRRKRAKLIGKYLMGDLLGEGSYGKVKEVLDSETLCRRAVKILKKKKLRRIPNGEANVKKETQLLRRLRHKNVIQLVDVLYNEEKQKMYMVMEYCVCGMQEMLDSVPEKRFPVCQAHGYFCQLIDGLEYLHSQGIVHKDIKPGNLLLTTGGTLKISDLGVAEALHPFAADDTCRTSQGSPAFQPPEIANGLDTFSGFKVDIWSAGVTLYNITTGLYPFEGDNIYKLFENIGKGSYAIPGDCGPPLSDLLKGMLEYEPAKRFSIRQIRQHSWFRKKHPPAEAPVPIPPSPDTKDRWRSMTVVPYLEDLHGADEDEDLFDIEDDIIYTQDFTVPGQVPEEEASHNGQRRGLPKAVCMNGTEAAQLSTKSRAEGRAPNPARKACSASSKIRRLSACKQQ [I99T] | 1.45 ± 0.43
11 | MEVVDPQQLGMFTEGELMSVGMDTFIHRIDSTEVIYQPRRKRAKLIGKYLMGDLLGEGSYGKVKEVLDSETLCRRAVKILKKKKLRRIPNGEANVKKEIALLRRLRHKNVIQLVDVLYNEEKQKMYMVMEYCVCGMQEMLDSVPEKRFPVCQAHGYFCQLIDGLEYLHSQGIVHKDIKPGNLLLTTGGTLKISDLGVAEALHPFAADDTCRTSQGSPAFQPPEIANGLDTFSGFKVDIWSAGVTLYNITTGLYPFEGDNIYKLFENIGKGSYAIPGDCGPPLSDLLKGMLEYEPAKRFSIRQIRQHSWFRKKHPPAEAPVPIPPSPDTKDRWRSMTVVPYLEDLHGADEDEDLFDIEDDIIYTQDFTVPGQVPEEEASHNGQRRGLPKAVCMNGTEAAQLSTKSRAEGRAPNPARKACSASSKIRRLSACKQQ [Q100A] | 0.571 ± 0.42
12 | MEVVDPQQLGMFTEGELMSVGMDTFIHRIDSTEVIYQPRRKRAKLIGKYLMGDLLGEGSYGKVKEVLDSETLCRRAVKILKKKKLRRIPNGEANVKKEIFLLRRLRHKNVIQLVDVLYNEEKQKMYMVMEYCVCGMQEMLDSVPEKRFPVCQAHGYFCQLIDGLEYLHSQGIVHKDIKPGNLLLTTGGTLKISDLGVAEALHPFAADDTCRTSQGSPAFQPPEIANGLDTFSGFKVDIWSAGVTLYNITTGLYPFEGDNIYKLFENIGKGSYAIPGDCGPPLSDLLKGMLEYEPAKRFSIRQIRQHSWFRKKHPPAEAPVPIPPSPDTKDRWRSMTVVPYLEDLHGADEDEDLFDIEDDIIYTQDFTVPGQVPEEEASHNGQRRGLPKAVCMNGTEAAQLSTKSRAEGRAPNPARKACSASSKIRRLSACKQQ [Q100F] | 0.976 ± 0.19
13 | MEVVDPQQLGMFTEGELMSVGMDTFIHRIDSTEVIYQPRRKRAKLIGKYLMGDLLGEGSYGKVKEVLDSETLCRRAVKILKKKKLRRIPNGEANVKKEIDLLRRLRHKNVIQLVDVLYNEEKQKMYMVMEYCVCGMQEMLDSVPEKRFPVCQAHGYFCQLIDGLEYLHSQGIVHKDIKPGNLLLTTGGTLKISDLGVAEALHPFAADDTCRTSQGSPAFQPPEIANGLDTFSGFKVDIWSAGVTLYNITTGLYPFEGDNIYKLFENIGKGSYAIPGDCGPPLSDLLKGMLEYEPAKRFSIRQIRQHSWFRKKHPPAEAPVPIPPSPDTKDRWRSMTVVPYLEDLHGADEDEDLFDIEDDIIYTQDFTVPGQVPEEEASHNGQRRGLPKAVCMNGTEAAQLSTKSRAEGRAPNPARKACSASSKIRRLSACKQQ [Q100D] | 1.57 ± 0.19
14 | MEVVDPQQLGMFTEGELMSVGMDTFIHRIDSTEVIYQPRRKRAKLIGKYLMGDLLGEGSYGKVKEVLDSETLCRRAVKILKKKKLRRIPNGEANVKKEIELLRRLRHKNVIQLVDVLYNEEKQKMYMVMEYCVCGMQEMLDSVPEKRFPVCQAHGYFCQLIDGLEYLHSQGIVHKDIKPGNLLLTTGGTLKISDLGVAEALHPFAADDTCRTSQGSPAFQPPEIANGLDTFSGFKVDIWSAGVTLYNITTGLYPFEGDNIYKLFENIGKGSYAIPGDCGPPLSDLLKGMLEYEPAKRFSIRQIRQHSWFRKKHPPAEAPVPIPPSPDTKDRWRSMTVVPYLEDLHGADEDEDLFDIEDDIIYTQDFTVPGQVPEEEASHNGQRRGLPKAVCMNGTEAAQLSTKSRAEGRAPNPARKACSASSKIRRLSACKQQ [Q100E] | 1.25 ± 0.76
